Residue numbers refer to the chain shown, from its start. Where “and” joins values, the source holds several entries; their conditions need not be identical. Identical values can stand only once. Like-named read-outs stand apart in the source and are kept apart here. Ends that are not written are not given here. * marks the point of attachment. Palmitoyl = CCCCCCCCCCCCCCCC(=O)*
Columns and labels:
rat serum albumin = rat serum albumin (rat, UniProt P02770 25-608); experiment: monoclonal phage ELISA
mouse serum albumin = molecular target: T1, mouse serum albumin (mouse, UniProt P07724 25-608); experiment: monoclonal phage ELISA
T1 construct: also called MSA

[1] = molecular target: T2, human complement component C5 (human, UniProt P01031 19-673; P01031 678-1676); experiment: SPR (Biacore), C5, mean of n=3
T2 construct: mature; Mature C5 is a disulphide-linked beta and alpha chain cut from one precursor; Terbium-labelled in the FRET assays, biotinylated in part of the phage ELISA; also called human C5; C5-Tb

[2] = molecular target: T2, human complement component C5
[3] = molecular target: T2, human complement component C5; remark: listed apart in the source
[4] = molecular target: T2, human complement component C5; remark: listed apart in the source
[5] = molecular target: T2, human complement component C5; experiment: cell-based or functional assay
[6] = molecular target: T2, human complement component C5; experiment: SPR single-cycle kinetics, human C5, n=1
[7] = molecular target: T2, human complement component C5; experiment: cell-based or functional assay; remark: listed apart in the source
[8] = molecular target: T2, human complement component C5; experiment: SPR multi-cycle kinetics, human C5 immobilised, mean of n=3

T2 sequence (P01031 19-673 limits assumed, chain 1 of 2): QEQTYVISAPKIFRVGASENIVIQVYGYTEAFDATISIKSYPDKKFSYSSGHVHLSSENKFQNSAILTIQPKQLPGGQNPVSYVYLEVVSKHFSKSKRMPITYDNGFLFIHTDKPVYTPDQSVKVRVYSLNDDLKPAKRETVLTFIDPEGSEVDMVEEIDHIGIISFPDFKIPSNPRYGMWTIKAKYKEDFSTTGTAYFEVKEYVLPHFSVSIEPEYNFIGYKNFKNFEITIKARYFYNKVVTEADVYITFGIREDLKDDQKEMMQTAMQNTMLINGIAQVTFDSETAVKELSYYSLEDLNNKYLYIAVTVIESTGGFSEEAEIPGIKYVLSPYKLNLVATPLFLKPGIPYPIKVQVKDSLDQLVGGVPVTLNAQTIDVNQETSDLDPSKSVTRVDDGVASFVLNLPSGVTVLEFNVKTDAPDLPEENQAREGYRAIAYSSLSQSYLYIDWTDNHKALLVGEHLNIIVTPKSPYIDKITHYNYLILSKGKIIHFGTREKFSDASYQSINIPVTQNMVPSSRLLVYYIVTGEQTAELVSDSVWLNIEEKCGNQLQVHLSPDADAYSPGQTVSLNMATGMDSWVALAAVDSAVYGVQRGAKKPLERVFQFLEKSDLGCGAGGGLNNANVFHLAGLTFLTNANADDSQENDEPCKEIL
T2 sequence (P01031 678-1676 limits assumed, chain 2 of 2): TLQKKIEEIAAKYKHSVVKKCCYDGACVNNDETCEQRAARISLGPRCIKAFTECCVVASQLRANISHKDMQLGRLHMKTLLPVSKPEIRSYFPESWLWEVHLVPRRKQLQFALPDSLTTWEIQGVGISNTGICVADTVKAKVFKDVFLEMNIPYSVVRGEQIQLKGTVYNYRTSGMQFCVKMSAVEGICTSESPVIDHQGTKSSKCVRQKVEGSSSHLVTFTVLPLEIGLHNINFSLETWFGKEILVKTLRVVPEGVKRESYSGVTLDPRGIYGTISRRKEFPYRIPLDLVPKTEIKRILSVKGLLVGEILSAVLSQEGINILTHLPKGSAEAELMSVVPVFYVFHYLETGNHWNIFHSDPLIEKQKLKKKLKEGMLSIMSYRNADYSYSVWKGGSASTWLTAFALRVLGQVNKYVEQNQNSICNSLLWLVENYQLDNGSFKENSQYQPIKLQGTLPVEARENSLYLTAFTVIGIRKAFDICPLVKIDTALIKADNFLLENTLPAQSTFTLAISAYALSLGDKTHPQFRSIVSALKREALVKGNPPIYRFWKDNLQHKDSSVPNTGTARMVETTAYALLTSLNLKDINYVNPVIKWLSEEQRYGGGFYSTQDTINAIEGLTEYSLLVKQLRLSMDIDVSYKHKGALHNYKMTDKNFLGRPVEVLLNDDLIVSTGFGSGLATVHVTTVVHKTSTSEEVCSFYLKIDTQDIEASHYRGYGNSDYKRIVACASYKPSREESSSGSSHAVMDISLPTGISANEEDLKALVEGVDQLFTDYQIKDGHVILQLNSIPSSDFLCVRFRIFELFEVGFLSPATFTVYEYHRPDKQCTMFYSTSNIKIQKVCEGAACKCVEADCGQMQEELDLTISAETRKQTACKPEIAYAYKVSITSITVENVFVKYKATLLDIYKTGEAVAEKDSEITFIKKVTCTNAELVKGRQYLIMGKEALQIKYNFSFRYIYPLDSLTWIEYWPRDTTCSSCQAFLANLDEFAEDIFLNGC
rat serum albumin, sequence (P02770 25-608 limits assumed): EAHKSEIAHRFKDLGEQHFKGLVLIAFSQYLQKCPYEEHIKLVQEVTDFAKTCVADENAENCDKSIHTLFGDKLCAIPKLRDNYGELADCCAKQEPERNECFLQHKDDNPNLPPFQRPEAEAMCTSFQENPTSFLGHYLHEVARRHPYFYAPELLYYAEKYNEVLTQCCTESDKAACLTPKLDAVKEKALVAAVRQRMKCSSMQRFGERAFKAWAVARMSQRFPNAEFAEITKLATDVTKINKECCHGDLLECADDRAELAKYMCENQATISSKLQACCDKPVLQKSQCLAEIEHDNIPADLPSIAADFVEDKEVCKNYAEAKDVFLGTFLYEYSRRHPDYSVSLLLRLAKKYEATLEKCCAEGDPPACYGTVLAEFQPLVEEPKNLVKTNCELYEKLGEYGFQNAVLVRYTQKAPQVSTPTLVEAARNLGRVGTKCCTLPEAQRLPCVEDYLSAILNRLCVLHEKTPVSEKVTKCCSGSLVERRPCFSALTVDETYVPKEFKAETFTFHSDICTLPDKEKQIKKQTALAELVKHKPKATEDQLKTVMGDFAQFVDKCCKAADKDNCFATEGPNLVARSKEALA

B1: ultralong CDR-H3 of SEQ ID NO: 499 displayed on M13 phage (other)
chain: TTVHQQTQKHCPDDDTDRDGCSRPDSRGGSGCGSYGRYGDQGGACCPLTYEFDV
notes: not shown: poly-histidine, c-myc tag, M13 pIII
Q: What does the source list for B1?
A: binding result (rat serum albumin): binds; binding result (mouse serum albumin): binds

B2: ultralong CDR-H3 of SEQ ID NO: 497 displayed on M13 phage (other)
chain: TTVHQKTTRQTSCPDGYIAGDSSCYRWRCRGNNCCKYGENRLLNYYDYTCVPYRDTYEWYVD
notes: as for B1
Q: Does B2 bind (mouse serum albumin)?
A: Result: binds

B3: K57 ultralong CDR-H3-hC3nb1 (bispecific antibody, not shown: a dimerising Fc or GST)
VHH: TTVHQRTIKSGCPPGYKSGVDCSPGSECKWGCYAVDGRRYGGYGADSGVGSTYTHEFYVDAWGQGSSSSGSSSSGQVQLVETGGGLVQAGGSLRLSCAASGSIFSLNAMGWFRQAPGKEREFVATINRSGGRTYYADSVKGRFTISRDNGKNMVYLQMHSLKPEDTAIYYCAAGTGWSPQTDNEYNYWGQGTQVTVSS
notes: tied to the label 'hC3Nb1 N-Term' on that ground; also called hC3Nb1 N-Term
Q: With B3 as the binder, how does the Kd [1] read?
A: The Kd was 0.192 nM.

B4: hC3nb1-K57 loop 2 with C-terminal single-chain Fc tag (bispecific antibody, not shown: a dimerising Fc or GST)
VHH: QVQLVETGGGLVQAGGSLRLSCAASGSIFSLNAMGWFRQAPSGGGSGCPPGYKSGVDCSPGSECKWGCYAVDGRRYGGYGADSGVSGGGSKEREFVATINRSGGRTYYADSVKGRFTISRDNGKNMVYLQMHSLKPEDTAIYYCAAGTGWSPQTDNEYNYWGQGTQVTVSS
notes: also called hC3Nb1 Loop 2
Q: With B4 as the binder, how does the Kd [1] read?
A: Its Kd is 0.321 nM.

B5: ultralong CDR-H3 of SEQ ID NO: 506 displayed on M13 phage (other)
chain: TTVHQQTQERCPDDYTDRGGCSIPYNCGGSRCCAYGRNGGYGGVSCSRTYEFYVN
notes: as for B1
Q: Does B5 bind (rat serum albumin)?
A: Result: binds

Q: Does B5 bind (mouse serum albumin)?
A: Result: binds

B6: ultralong CDR-H3 of SEQ ID NO: 505 displayed on M13 phage (other)
chain: B5 chain with N38Y, G40D, V44I
notes: as for B1
Q: Which results are given for B6?
A: binding result (rat serum albumin): binds; binding result (mouse serum albumin): binds

B7: ultralong CDR-H3 of SEQ ID NO: 502 displayed on M13 phage (other)
chain: B5 chain with N26T
notes: as for B1
Q: Does B7 bind (rat serum albumin)?
A: Result: binds

Q: Does B7 bind (mouse serum albumin)?
A: Result: binds

B8: ultralong CDR-H3 of SEQ ID NO: 500 displayed on M13 phage (other)
chain: B5 chain with V44I
notes: as for B1
Q: Does B8 bind (rat serum albumin)?
A: Result: binds

Q: Does B8 bind (mouse serum albumin)?
A: Result: binds

B9: ultralong CDR-H3 of SEQ ID NO: 508 displayed on M13 phage (other)
chain: B5 chain with D14N, N26T
notes: as for B1
Q: Does B9 bind (rat serum albumin)?
A: Result: binds

Q: Does B9 bind (mouse serum albumin)?
A: Result: binds

B10: ultralong CDR-H3 of SEQ ID NO: 507 displayed on M13 phage (other)
chain: B5 chain with D14N, N26S, G29D
notes: as for B1
Q: Does B10 bind (rat serum albumin)?
A: Result: binds

Q: Does B10 bind (mouse serum albumin)?
A: Result: binds

B11: ultralong CDR-H3 of SEQ ID NO: 504 displayed on M13 phage (other)
chain: B5 chain with N26S, G29D
notes: as for B1
Q: Does B11 bind (rat serum albumin)?
A: Result: binds

Q: Does B11 bind (mouse serum albumin)?
A: Result: binds

B12: ultralong CDR-H3 of SEQ ID NO: 503 displayed on M13 phage (other)
chain: B5 chain with V44I, F52W, N55D
notes: as for B1
Q: Which results are given for B12?
A: binding result (rat serum albumin): binds; binding result (mouse serum albumin): binds

B13: ultralong CDR-H3 of SEQ ID NO: 501 displayed on M13 phage (other)
chain: B5 chain with V44N, S45T, F52L, N55E
notes: as for B1
Q: Does B13 bind (rat serum albumin)?
A: Result: binds

Q: Does B13 bind (mouse serum albumin)?
A: Result: binds

B14: PGT121 Fab-K57 knob domain fusion protein (Fab)
heavy: QMQLQESGPGLVKPSETLSLTCSVSGASISDSYWSWIRRSPGKGLEWIGYVHKSGDTNYSPSLKSRVNLSLDTSKNQVSLSLVAATAADSGKYYCARTLHGRRIYGSENLYFQGSGCPPGYKSGVDCSPGSECKWGCYAVDGRRYGGYGADSGVENLYFQGSEWFTYFYMDVWGNGTQVTVSSASTKGPSVFPLAPSSKSTSGGTAALGCLVKDYFPEPVTVSWNSGALTSGVHTFPAVLQSSGLYSLSSVVTVPSSSLGTQTYICNVNHKPSNTKVDKRVEPKSCDKTLEENLYFQGSGGSHHHHHHHHHH
light: QSVLTQPPDISVAPGETARISCGEKSLGSRAVQWYQHRAGQAPSLIIYNNQDRPSGIPERFSGSPDSPFGTTATLTITSVEAGDEADYYCHIWDSRVPTKWVFGGGTTLTVLGQPKAAPSVTLFPPSSEELQANKATLVCLISDFYPGAVTVAWKADSSPVKAGVETTTPSKQSNNKYAASSYLSLTPEQWKSHRSYSCQVTHEGSTVEKTVAPTECS
Q: With B14 as the binder, how does the Kd [2] read?
A: Its Kd is 4.9 nM and 3 nM and 3.4 nM and 3.7 nM.

Q: What about the Kd [3] of the same binder?
A: Its Kd is 4.1 nM.

Q: And the koff [3]?
A: Its koff is 0.000132 s⁻¹.

Q: And the kon [3]?
A: Its kon is 32300 M⁻¹ s⁻¹.

Q: What about the Kd [4] of the same binder?
A: Its Kd is 3.3 nM and 2.3 nM and 3.4 nM and 3 nM.

B15: PGT121 Fab-K149 knob domain fusion protein (Fab)
heavy: QMQLQESGPGLVKPSETLSLTCSVSGASISDSYWSWIRRSPGKGLEWIGYVHKSGDTNYSPSLKSRVNLSLDTSKNQVSLSLVAATAADSGKYYCARTLHGRRIYGSENLYFQGSCPDGFSYRSWDDFCCPMVGRCLAPRNGSENLYFQGSEWFTYFYMDVWGNGTQVTVSSASTKGPSVFPLAPSSKSTSGGTAALGCLVKDYFPEPVTVSWNSGALTSGVHTFPAVLQSSGLYSLSSVVTVPSSSLGTQTYICNVNHKPSNTKVDKRVEPKSCDKTLEENLYFQGSGGSHHHHHHHHHH
light: B14 light
Q: How did the Kd [2] turn out when B15 was run?
A: The Kd was 34.9 nM and 57.6 nM and 30.1 nM and 39.3 nM.

Q: And the Kd [3]?
A: Its Kd is 143 nM.

Q: What about the koff [3] of the same binder?
A: Its koff is 0.00162 s⁻¹.

Q: And the kon [3]?
A: The kon was 11300 M⁻¹ s⁻¹.

B16: PGT121 Fab-K92 knob domain fusion protein (Fab)
heavy: QMQLQESGPGLVKPSETLSLTCSVSGASISDSYWSWIRRSPGKGLEWIGYVHKSGDTNYSPSLKSRVNLSLDTSKNQVSLSLVAATAADSGKYYCARTLHGRRIYGSENLYFQGVTCPEGWSECGVAIYGYECGRWGCGHFLNSGPNISPYVTTGSENLYFQGSEWFTYFYMDVWGNGTQVTVSSASTKGPSVFPLAPSSKSTSGGTAALGCLVKDYFPEPVTVSWNSGALTSGVHTFPAVLQSSGLYSLSSVVTVPSSSLGTQTYICNVNHKPSNTKVDKRVEPKSCDKTLEENLYFQGSGGSHHHHHHHHHH
light: B14 light
Q: How did the Kd [2] turn out when B16 was run?
A: Its Kd is 14 nM and 10.3 nM and 15.5 nM and 13.1 nM.

Q: What about the Kd [3] of the same binder?
A: Its Kd is less than 0.1 nM.

Q: What about the koff [3] of the same binder?
A: The koff was less than 2.93e-05 s⁻¹.

Q: What about the kon [3] of the same binder?
A: The kon was 28000 M⁻¹ s⁻¹.

Q: And the Kd [4]?
A: Its Kd is 19.3 nM and 7.7 nM and 11.3 nM and 11.9 nM.

B17: PGT121 Fab-K136 knob domain fusion protein (Fab)
heavy: QMQLQESGPGLVKPSETLSLTCSVSGASISDSYWSWIRRSPGKGLEWIGYVHKSGDTNYSPSLKSRVNLSLDTSKNQVSLSLVAATAADSGKYYCARTLHGRRIYGSENLYFQGTCPDNYREVDGCDPYDCCLTTWCTNSYCTRYIENLYFQGSEWFTYFYMDVWGNGTQVTVSSASTKGPSVFPLAPSSKSTSGGTAALGCLVKDYFPEPVTVSWNSGALTSGVHTFPAVLQSSGLYSLSSVVTVPSSSLGTQTYICNVNHKPSNTKVDKRVEPKSCDKTLEENLYFQGSGGSHHHHHHHHHH
light: B14 light
Q: With B17 as the binder, how does the Kd [2] read?
A: Its Kd is 46.3 nM and 115 nM and 73 nM.

Q: What about the Kd [3] of the same binder?
A: Its Kd is less than 0.1 nM.

Q: What about the koff [3] of the same binder?
A: The koff was less than 1e-05 s⁻¹.

Q: And the kon [3]?
A: The kon was 9520 M⁻¹ s⁻¹.

Q: And the Kd [4]?
A: Its Kd is 46.3 nM and 23.4 nM and 58.1 nM and 39.8 nM.

B18: K92 knob domain peptide, chemically synthesised, free energy method (Example 4) (peptide)
peptide: TCPEGWSECGVAIYGYECGRWGCGHFLNSGPNISPYVTTGS
modifications: disulfide (positions not given here); also: disulphides formed in glutathione redox buffer, pairing not given here
notes: Disulphides formed in glutathione redox buffer
Q: Which “Classical pathway C5b deposition ELISA, average Emax” value [5] does the source give for B18 here?
A: Its value is -33.9%.

Q: What about the “Classical pathway C5b deposition ELISA, geomean IC50” value [5] of the same binder?
A: Its value is 6.6 nM.

Q: And the Kd [6]?
A: The Kd was 0.643 nM.

Q: And the koff [6]?
A: Its koff is 0.000103 s⁻¹.

Q: What about the kon [6] of the same binder?
A: The kon was 160000 M⁻¹ s⁻¹.

Q: And the “Alternative pathway C5b neoepitope ELISA, average Emax” value [7]?
A: The value was 56.8%.

Q: What about the “Alternative pathway C5b neoepitope ELISA, geomean IC50” value [7] of the same binder?
A: The value was 46.2 nM.

Q: What does the source list for Palmitoyl-GCPPGYKSGVDCSPGSECKWGCYAVDGRRYGGYGADSGVGS (also: disulphides formed by free energy method, pairing not given here) [K57chemFE-Palmitoyl]?
A: Kd [8]: 9.52 nM; koff [8]: 0.000477 s⁻¹; kon [8]: 51100 M⁻¹ s⁻¹

Q: For cyclo(VCPDGFNWGYGCAAGSSRFCTRHDWCCYDERADSHTYGFCTGNRV) (also: disulphides formed by free energy method, pairing not given here, Head-to-tail cyclised K8chemFE) [K8 chemFE cyclic], which Kd [8] is on record?
A: Its Kd is 28.5 nM.

Q: And the koff [8]?
A: The koff was 0.00259 s⁻¹.

Q: And the kon [8]?
A: The kon was 94000 M⁻¹ s⁻¹.

B19: hC3nb1-K57 loop 3 with C-terminal single-chain Fc tag (bispecific antibody, not shown: a dimerising Fc or GST)
VHH: QVQLVETGGGLVQAGGSLRLSCAASGSIFSLNAMGWFRQAPGKEREFVATINRSGGRTYYADSVKGSGGGSGCPPGYKSGVDCSPGSECKWGCYAVDGRRYGGYGADSGVSGGGSRFTISRDNGKNMVYLQMHSLKPEDTAIYYCAAGTGWSPQTDNEYNYWGQGTQVTVSS
notes: also called hC3Nb1 Loop 3
Q: For B19, which Kd [1] is on record?
A: Its Kd is 0.596 nM.

From patent US20240024520A1 (UCB, published 2024)
